Assay results reported in patent US20050181476A1 (VLAAMS INTERUNIVERSITAIR INSTITUUT VOOR BIOTECHNOLOGIE VZW, published 2005).

Biological target: T1, IRAK-4 (UniProt Q9NWZ3 1-460)
T1 construct: also called Gal4AD-IRAK4 (in yeast); not shown: N-terminal Flag or VSV tag (pCRIII) in HEK293T co-immunoprecipitation
T1 sequence (looked up): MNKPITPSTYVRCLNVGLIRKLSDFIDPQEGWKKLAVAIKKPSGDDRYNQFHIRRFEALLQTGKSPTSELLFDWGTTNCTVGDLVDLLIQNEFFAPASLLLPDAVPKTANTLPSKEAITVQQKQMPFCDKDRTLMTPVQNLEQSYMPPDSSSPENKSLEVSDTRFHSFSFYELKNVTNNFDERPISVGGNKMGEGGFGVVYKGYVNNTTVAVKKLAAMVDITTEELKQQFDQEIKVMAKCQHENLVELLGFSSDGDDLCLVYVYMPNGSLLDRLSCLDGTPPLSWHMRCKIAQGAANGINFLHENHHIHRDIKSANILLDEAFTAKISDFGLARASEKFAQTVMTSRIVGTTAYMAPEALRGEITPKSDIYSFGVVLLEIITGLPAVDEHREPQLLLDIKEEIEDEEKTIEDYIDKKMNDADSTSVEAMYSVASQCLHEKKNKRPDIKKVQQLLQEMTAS
Assay: co-immunoprecipitation from transfected HEK293T cells
Procedure: To test this, IRAK-1KD and IRAK-4 interactions were analyzed in the presence or absence of MyD88 and/or MyD88S. […] However, addition of MyD88 but not MyD88S permitted assembly of a complex containing both IRAKs. MyD88 thereby appears to act like a hinge inducing the proximity of IRAK-1 and IRAK-4.
2×10⁶ HEK293T cells were plated on 10-cm petri dishes and transiently transfected with 1 μg of the indicated expression plasmids. The total amount of DNA was kept at 5 μg per petri dish by adding empty vector. Twenty-four hours post-transfection, cells were washed with PBS, and lysed in 500 μl lysis buffer (50 mM HEPES pH7.6, 250 mM NaCl, 0.1% NP-40, 5 mM EDTA, supplemented with protease and phosphatase inhibitors). Lysates were incubated for 16 hours with 5 μg anti-Flag (Sigma). Immunocomplexes were immobilized on protein A-Trisacryl beads (Pierce Chemical Co., Rockford, USA). The beads were washed twice with lysis buffer and twice with lysis buffer containing 1 M NaCl. Bound proteins were eluted by boiling in Laemli buffer and analyzed by 10% SDS-PAGE and Western blotting. Western blots were blocked with 5% milk and incubated overnight with primary antibodies. Antibodies raised against the C-terminal part of MyD88 were purchased from Immucor (Roedermark, Germany). […]

B1: E-MyD88S (other)
chain: MSAGDPRVGSGSLDSFMFSIPLVALNVGVRRRLSLFLNPRTPVAADWTLLPEEMGFEYLEIRELETRPDPTRSLLDAWQGRSGASVGRLLELLALLDREDILKELKSRIGQTPELFDAFICYCPNDIEFVQEMIRQLEQTDYRLKLCVSDRDVLPGTCVWSIASELIEKRCRRMVVVVSDDYLQSKECDFQTKFALSLSPGVQQKRLIPIKYKAMKKDFPSILRFITICDYTNPCTKSWFWTRLAKALSLP
notes: Expressed in HEK293T cells; also called pCAGGS-E-MyD88S; splice variant of MyD88 lacking the intermediate domain (ID); not shown: N-terminal E-tag
B1: no binding.
